How the values were obtained:
WT p53 in U2OS cells [1] = assay: Native page analysis of p53 in treated U2OS cells; assay type: cell-based, human
WT p53 in U2OS cells [2] = assay: Western blot of p53 in U2OS cells treated with chemotherapeutic agents; assay type: cell-based, human
[3] = system: mutant p53 inclusions in SaOS-2 cells; assay: Nocodazole treatment of transfected SaOS-2 cells, immunofluorescence of aggresomal inclusions; assay type: cell-based, human
Protocol: To further investigate the aggresomal nature of the observed inclusions, several strategies were adopted. (i) Since the formation of cytoplasmic inclusions in aggresomes is an active process that depends on cytoskeletal integrity,^15 transfected cells were treated with nocodazole, a small chemical that disrupts microtubule assembly. […] (ii) The oligomerization state of p53 in SaOS-2 cells by Blue-Native PAGE (BN-PAGE) and Western blot analysis was also assessed, after cell lysis with a mild detergent (CHAPS). […] In denaturing but non-reducing PAGE, the oligomers and aggregates were dissociated into monomers, and all mutants were expressed at similar levels (FIG. 2, panel c).
Since co-aggregation of proteins depends strictly on sequence similarity rather than hydrophobicity,^27 mutant p53 might also be able to induce co-aggregation and inactivation of p63 and p73. To investigate this hypothesis, mutant p53 and the transactivation domain (TA) of p63 or p73 (TAp63α/TAp73α) were co-expressed in SaOS-2 cells. […]
In the degradation stability test, protein synthesis was blocked by 60 μg/mL cycloheximide 24 hours after transfection, and cells were lysed 0, 3, 6, 12, 24 and 48 hours after the addition of cycloheximide. […] Cells were analyzed by immunofluorescence after 24 hours.

[4] = target: p53β (p53-aggregating sequence ILTIITL) (Homo sapiens, UniProt P04637); assay: In vitro peptide-binding assay (PepSpot membrane, biotinylated p53β peptide, streptavidin-HRP); settings: immobilized peptide, p53β self-interaction = 100,00
Excerpt: In order to identify aggregating peptides that match p53β, the human proteome for peptides that have high homology with the p53β peptide were screened. While p53β is unique to p53, in silico analysis identified 56 additional peptides (Table 2) that have no more than two mismatches with p53β. Subsequently, the ability of the selected peptides to interact with p53β using an in vitro peptide-binding assay was empirically determined. Therefore, the 56 selected peptides were spot-synthesized on a cellulose membrane, which was subsequently incubated with biotinylated p53β peptide (FIG. 17, panel b). After washing, the membrane was treated with streptavidine-HRP to detect p53β binding (FIG. 17, panel c). Consistently, the assay successfully identified control peptides including p53β itself, as well as the equivalent sequences from p63 and p73. […] The sequence identity between p53β and their interacting peptide, however, is 75%. Although the function of the proteins from which these 33 interacting peptides stem is often poorly characterized, some interesting cases can be identified. Along with the previously identified p63 and p73, which are inactivated by mutant p53 in cancer, segments were found belonging to Copine-2 (CPNE2), which is a negative regulator of growth factor signaling,^72 methionine synthase (METH), which has been associated to methionine dependence in tumors,^64 CGRF1, a negative regulator of cell proliferation,^67 and caspase-8 (CASP8), a key element for apoptosis, the inactivation of which is associated to chemoresistance and found in a variety of human cancers.^66
Peptides of selected sequences were spot synthesized on PVDF membrane (PepSpot, JPT). The membranes were blocked by 1% BSA in phosphate-buffered saline for 1 hour at room temperature, and then incubated with biotinylated peptide containing the p53-aggregating sequence for 1 hour. After rinsing with 0.1% TWEEN® 20 in 25 mM MES buffer pH 7.0, membranes were incubated in HRP-labeled Streptavidin (Thermo) and visualized with electrochemical luminescence (ECL) system.

Row | Molecule | Binding intensity (normalized) [4] | further results
1 | CC(C)C[C@H](NC(=O)[C@H](Cc1ccccc1)NC(=O)c1cnccn1)B(O)O [Bortezomib] |  | p53 high molecular-weight species (native page) (WT p53 in U2OS cells [1]): smear was comparable
2 | COc1cccc2c1C(=O)c1c(O)c3c(c(O)c1C2=O)C[C@@](O)(C(=O)CO)C[C@@H]3O[C@H]1C[C@H](N)[C@H](O)[C@H](C)O1 [doxorubicin] |  | p53 expression level (Western blot) (WT p53 in U2OS cells [2]): increased expression levels of p53; p53 high molecular-weight species (native page) (WT p53 in U2OS cells [1]): high molecular-weight species of p53
3 | COC(=O)Nc1nc2ccc(C(=O)c3cccs3)cc2[nH]1 [nocodazole] |  | vimentin network and aggregates of mutant p53 and p63/p73 ([3]; SaOS-2 cells co-expressing aggregating p53 mutants and TAp63α/TAp73α): disrupted the vimentin network and resulted in diffused punctuate aggregates in the cytoplasm; cellular distribution of mutant p53 ([3]; SaOS-2 cells over-expressing mutant p53): shifted from a punctate to a diffuse cytoplasmic staining
4 | ALTFITL (listed as Homo sapiens) [peptide from BN3D2_HUMAN] | 6,47 | 
5 | ALVIITL (listed as Homo sapiens) [peptide from CCNI2_HUMAN] | 43,37 | 
6 | CLTIITG (listed as Homo sapiens) [peptide from TRI18_HUMAN] | 3,67 | 
7 | DLTIIDL (listed as Homo sapiens) [peptide from MX2_HUMAN] | 40,18 | 
8 | FLTIFTL (listed as Homo sapiens) [peptide from PRA10_HUMAN] | 26,40 | 
9 | GLTIPTL (listed as Homo sapiens) | 10,86 | 
10 | IEVIITL (listed as Homo sapiens) [peptide from CXL11_HUMAN] | 8,54 | 
11 | IHAIITL (listed as Homo sapiens) [peptide from LRC40_HUMAN] | 8,22 | 
12 | IKSIITL (listed as Homo sapiens) [peptide from CT132_HUMAN] | 4,39 | 
13 | IKTIINL (listed as Homo sapiens) [peptide from PTPC1_HUMAN] | 9,72 | 
14 | ILCDITL (listed as Homo sapiens) [peptide from KLH32_HUMAN] | 7,89 | 
15 | ILDIITS (listed as Homo sapiens) [peptide from ANXA6_HUMAN] | 78,87 | 
16 | ILGKITL (listed as Homo sapiens) [peptide from MP2K4_HUMAN] | 16,85 | 
17 | ILIIITL (listed as Homo sapiens) [peptide from P73_HUMAN] | 98,99 | 
18 | ILIIVTL (listed as Homo sapiens) [peptide from P63_HUMAN] | 92,04 | 
19 | ILKNITL (listed as Homo sapiens) [peptide from BPA1_HUMAN] | 12,10 | 
20 | ILKQITL (listed as Homo sapiens) | 19,84 | 

Row | Molecule | Binding intensity (normalized) [4] | further results
21 | ILLIITD (listed as Homo sapiens) [peptide from CPNE2_HUMAN] | 111,13 | 
22 | ILQIISL (listed as Homo sapiens) [peptide from PK3C3_HUMAN] | 26,33 | 
23 | ILQIITE (listed as Homo sapiens) [peptide from DHX29_HUMAN] | 15,64 | 
24 | ILRQITL (listed as Homo sapiens) [peptide from CD2A1_HUMAN] | 14,74 | 
25 | ILSIDTL (listed as Homo sapiens) [peptide from SPEF2_HUMAN] | 79,63 | 
26 | ILTDVTL (listed as Homo sapiens) | 5,88 | 
27 | ILTEIHL (listed as Homo sapiens) [peptide from RFC5_HUMAN] | 12,86 | 
28 | ILTFKTL (listed as Homo sapiens) [peptide from DYH3_HUMAN] | 6,20 | 
29 | ILTICTK (listed as Homo sapiens) | 6,48 | 
30 | ILTIGTG (listed as Homo sapiens) | 49,22 | 
31 | ILTIITL (listed as Homo sapiens) | 100,00 | 
32 | ILTIKEL (listed as Homo sapiens) [peptide from ZN830_HUMAN] | 14,09 | 
33 | ILTILCL (listed as Homo sapiens) | 4,81 | 
34 | ILTILTE (listed as Homo sapiens) [peptide from CASP8_HUMAN] | 11,43 | 
35 | ILTISSL (listed as Homo sapiens) [peptide from KV122_HUMAN] | 23,80 | 
36 | ILTITTP (listed as Homo sapiens) [peptide from CBPC3_HUMAN] | 19,59 | 
37 | ILTIVSL (listed as Homo sapiens) [peptide from DHX33_HUMAN] | 10,20 | 
38 | ILTKISL (listed as Homo sapiens) [peptide from HEAT1_HUMAN] | 8,65 | 
39 | ILTKPTL (listed as Homo sapiens) [peptide from MYST3_HUMAN] | 16,14 | 
40 | ILTKSTL (listed as Homo sapiens) [peptide from CND2_HUMAN] | 17,86 | 

Row | Molecule | Binding intensity (normalized) [4] | further results
41 | ILTKYTL (listed as Homo sapiens) [peptide from NOL11_HUMAN] | 33,34 | 
42 | ILTLIEL (listed as Homo sapiens) [peptide from SMG1_HUMAN] | 9,77 | 
43 | ILTNTTL (listed as Homo sapiens) [peptide from CC132_HUMAN] | 76,96 | 
44 | ILTSGTL (listed as Homo sapiens) [peptide from RTEL1_HUMAN] | 17,31 | 
45 | ILTSQTL (listed as Homo sapiens) | 2,39 | 
46 | ILVIITR (listed as Homo sapiens) [peptide from LONF2_HUMAN] | 6,81 | 
47 | IQTISTL (listed as Homo sapiens) [peptide from SCC4_HUMAN] | 7,06 | 
48 | ITTGITL (listed as Homo sapiens) [peptide from CGRF1_HUMAN] | 36,69 | 
49 | ITTVITL (listed as Homo sapiens) [peptide from CD041_HUMAN] | 5,27 | 
50 | IVTIITA (listed as Homo sapiens) | 17,21 | 
51 | IYTGITL (listed as Homo sapiens) | 32,12 | 
52 | KLTIITS (listed as Homo sapiens) [peptide from CM031_HUMAN] | 17,88 | 
53 | LLTIETL (listed as Homo sapiens) | 26,55 | 
54 | LLTIILL (listed as Homo sapiens) | 3,95 | 
55 | LLTIINL (listed as Homo sapiens) | 1,55 | 
56 | MLTEITL (listed as Homo sapiens) | 3,03 | 
57 | RRPILTIITLEDGS (listed as Homo sapiens) [reference compound] | 30,92 | 
58 | TLTISTL (listed as Homo sapiens) [peptide from KV117_HUMAN] | 10,18 | 
59 | VLTISTL (listed as Homo sapiens) | 6,72 | 
